Sequences and labels used below:
T1: recombinant human CD27/TNFRSF7/Fc chimera (R&D Systems Catalog No. 382-CD) (UniProt P26842 20-191)
T1 chain: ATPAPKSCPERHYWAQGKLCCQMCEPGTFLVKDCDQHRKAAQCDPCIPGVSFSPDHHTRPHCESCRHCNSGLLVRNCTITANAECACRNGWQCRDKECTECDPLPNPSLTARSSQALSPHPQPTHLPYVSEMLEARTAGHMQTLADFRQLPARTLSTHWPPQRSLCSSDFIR

B1: 3H8-1B11 (antibody, V domains shown)
VH: EVQLVESGGGLVQPGGSLRLSCAASGFTFSSYWMAWVRQAPGKGLEWLGNIKQDGSEKYYVDSVKGRFTISRDNAKNSLYLQMNSLRAEDTAVYYCVRELGMDWYFDLWGRGTLVTVSS
VL: EIVLTQSPATLSLSPGERATLSCRASQSVDSYLAWYQQKPGQAPRLLIYDASNRATGIPARFSGSGSGTDFTLTISNLEPEDFAVYYCQQRSNWPPTFGQGTKVEIK
B2: 1G5-1B9 (antibody, V domains shown)
VH: QVQLVESGGGVVQPGRSLRLSCAASGFSFSSYGMHWVRQAPGKGLEWVALLWYDGSHKDFADSVKGRFTISRDNSKNTLDLQMNSLRAEDTAVYYCAREGLAVPGHWYFDLWGRGTLVTVSS
VL: AIQLTQSPSSLSASVGDRVTITCRASQGISSALAWYQQKPGKAPKLLIYDASSLESGVPSRFSGSGSGTDFTLTISSLQPEDFATYYCQQFNTYPRTFGQGTKVEIK
B3: 2C2-1A10 (antibody, V domains shown)
VH: QVQLVESGGGVVQPGRSLRLSCAASGFTFSSYDIHWVRQAPGKGLEWVAVIWNDGSNKYYADSVKGRFTISRDNSTNSLFLQMNSLRAEDTAVYYCVGGTADLEHWDQGTLVTVSS
VL: DIQMTQSPSSLSASVGDRVTITCRASQGISSWLAWYQQKPEKAPKSLIYAASSLQSGVPSRFSGSGSGTDFTLTISSLQPEDFATYYCQQYNSYPLTFGGGTKVEIK
B4: 1H8-B4 (antibody, V domains shown)
VH: QVQLVESGGGVVQPGRSLRLSCAASGFTFNIYDMHWVRQAPGKGLEWVAVIWYDGSNQYYADSVKGRFTISRDNSKNTLYLQMNILRAEDTAVYYCARGTHWGYFDYWGQGTLVTVSS
VL: B3 VL with S53N, L96R, G100Q
B5: 1F5-1H5 (antibody, V domains shown)
VH: QVQLVESGGGVVQPGRSLRLSCAASGFTFSSYDMHWVRQAPGKGLEWVAVIWYDGSNKYYADSVKGRFTISRDNSKNTLYLQMNSLRAEDTAVYYCARGSGNWGFFDYWGQGTLVTVSS
VL: B3 VL with S31R, S93T, L96R, G100Q
B6: 3H12-1E12 (antibody, V domains shown)
VH: B5 VH with A24T, R87G, A88D
VL: B3 VL with S31R, S93T, L96R, G100Q
B7: 2G9-1D11 (antibody, V domains shown)
VH: B3 VH with F29L, Y32H, G98R
VL: B3 VL
B8: 3A10-G10 (antibody, V domains shown)
VH: QVQLVESGGGVVQPGRSLRLSCAASGFTFSHYGMHWVRQAPGKGPEWVAIIWYDGSNKYYADSVKGRFTISRDNSKNTLDLQMNSLRAEDTAVYYCARDGWTTMVRGLNVFDIWGQGTMVTVSS
VL: B3 VL with G28D, L96P, G100Q, K103R, V104L

Residue numbers refer to the chain shown, from its start.

The target of one assay is T1, recombinant human CD27/TNFRSF7/Fc …. Nature of the assay: Biacore SPR. In general terms: SPR reads the build-up and loss of mass on a sensor chip optically.
On to B1, for which the Ka was 1.81e+10 M⁻¹.

In the case of B2, the Ka turned out to be 2.55e+09 M⁻¹.

Take B3: the Ka worked out at 1.2e+10 M⁻¹.

As for B4, the Ka stood at 6.39e+09 M⁻¹.

With B5, the Ka was found to be 5.37e+09 M⁻¹.

For B6, the Ka is 2.8e+09 M⁻¹.

For the molecule B7, the Ka was found to be 6.6e+11 M⁻¹.

For the molecule B8, the Ka is 4.97e+09 M⁻¹.

For the next assay the target is unchanged. Nature of the assay: Biacore SPR. This is another data set of the same source.
The Kd is the concentration at which binding is half-saturated. B1: the Kd is 0.0556 nM.

For B2, the Kd was 0.402 nM.

With B3, the Kd was 0.0841 nM.

For the molecule B4, the Kd amounted to 0.158 nM.

For B5, the Kd amounted to 0.186 nM.

With B6, the Kd is 0.358 nM.

Take B7: the dissociation constant Kd is 0.00153 nM.

As for B8, the Kd came to 0.202 nM.

The values above are taken from patent US20120213771A1 (published 2012).
